Experiments:
[1] = tested on: EppR (TetR-like error-prone polymerase regulator) (Acinetobacter baumannii ATCC 17978); assay: EMSA
SEC = target: the molecule itself; assay: SEC

Molecule | Kd [1] [nM] | binding result (SEC)
recA regulatory region (promoter + 5'-UTR), 145 bp | 1100 | 
His-tagged A. baumannii RecA (natural protein, Acinetobacter baumannii, UniProt A3M645 1-349, looked up) MDENKSKALQAALSQIEKQFGKNTVMRLGDNTVQAVEAVSTGSLTLDIALGIGGLPKGRIIEIYGPESSGKTTMTLQAIAQCQKSGGTCAFIDAEHALDPQYARKLGVDIDNLLVSQPDNGEQALEIADMLVRSGAIDLIVVDSVAALTPKAEIEGEMGDSHMGLQARLMSQALRKITGNAKRSNCMVIFINQIRMKIGVMFGSPETTTGGNALKFYASVRLDIRRIGQVKEGDEIVGSETKVKVVKNKMAPPFKEAIFQILYGKGTNQLGELVDLAVQQDIVQKAGAWYSYQGNKIGQGKNNVIRYFEENTQIAEEIERNIREQLLTTGTNGAVQIEDEEEPDLLLES |  | binds

Source: paper doi:10.1101/2025.06.05.658052 (bioRxiv, 2025)
